{"source": "patent US20210340238A1", "about": "“TGFß1 INHIBITORS AND USE THEREOF” (Scholar Rock, Inc., priority 2018, published 2021)", "molecules": {"B1": {"name": "Ab2: isoform-selective inhibitor of TGFβ1 activation; VH SEQ ID NO: 13, VL SEQ ID NO: 15; human IgG4 (antibody, V domains shown)", "VH": "EVQLLESGGGLVQPGGSLRLSCAASGFTFADYAMTWVRQAPGKGLEWVSAISGSGAATYFADSVKGRFTISRDNSKNTLYLQMNSLRAEDTAVYYCARVSSGHWDFDYWGQGTLVTVSS", "VL": "DIQLTQSPSSLSASVGDRVTITCRASQSISSYLNWYQQKPGKAPKLLIYAASNLQSGVPSRFSGSGSGTDFTLTISSLQPEDFATYYCQQTYTVPLTFGGGTKVEIK", "modifications": "human IgG4 constant regions"}}, "key": {"[1]": {"system": "MBT2 tumors", "experiment": "MBT2 syngeneic bladder cancer mouse model, combination with anti-PD-1", "type": "in vivo", "conditions": "Ab3 10 and 30 mg/kg, Ab2 3 and 10 mg/kg, in combination with anti-PD-1", "source_text": "This is a very aggressive and fast-growing tumor model, and is very difficult to overcome tumor progression with drug treatment.\nTreatment with isotype control was used as a control group (data not shown).\nPercent tumor growth delay (% TGD) is defined as the increase in the median time to endpoint in a treatment group compared to the untreated control, expressed as a percentage of the median time to endpoint (TTE) of the control:\nT=median TTE for treatment"}, "[2]": {"system": "Cell-associated proTGFβ1", "experiment": "Octet binding, cell average of hGARP and hLRRC33 complexes", "set-up": "species or system human", "conditions": "average KD of (E) and (F), read-out: (G) Cell AVRG", "source_text": "Column (A) of the table provides monoclonal antibodies with discrete amino acid sequences. […] Columns (B), (C), (E) and (F) provide affinities of each of the listed antibodies, measured in KD, towards the antigen complex as indicated, respectively. […] Average KD values calculated from (B) and (C) are shown in the corresponding column (D), which collectively represents affinities of the antibodies to ECM- or matrix-associated proTGFβ1 complexes. Similarly, Average KD values calculated from (E) and (F) are shown in the corresponding column (G), which collectively represents affinities of the antibodies to cell-surface or cell-associated proTGF complexes. Finally, relative ratios between the average KD values from columns (D) and (G) are expressed as fold bias” in column (H). Thus, the greater the numerical of column (H) is, the greater bias exists for the particular antibody, when comparing binding preferences of the antibody for matrix-associated complexes to cell-surface complexes. This is one way of quantitatively representing and comparing inherent bias of antibodies to their target complexes. Such analyses may be useful in guiding the selection process for a candidate antibody for particular therapeutic use."}, "[3]": {"molecular_target": "proTGFβ1 C4S (Homo sapiens, UniProt P01137, C33S)", "sequence (P01137 30-390 C33S)": "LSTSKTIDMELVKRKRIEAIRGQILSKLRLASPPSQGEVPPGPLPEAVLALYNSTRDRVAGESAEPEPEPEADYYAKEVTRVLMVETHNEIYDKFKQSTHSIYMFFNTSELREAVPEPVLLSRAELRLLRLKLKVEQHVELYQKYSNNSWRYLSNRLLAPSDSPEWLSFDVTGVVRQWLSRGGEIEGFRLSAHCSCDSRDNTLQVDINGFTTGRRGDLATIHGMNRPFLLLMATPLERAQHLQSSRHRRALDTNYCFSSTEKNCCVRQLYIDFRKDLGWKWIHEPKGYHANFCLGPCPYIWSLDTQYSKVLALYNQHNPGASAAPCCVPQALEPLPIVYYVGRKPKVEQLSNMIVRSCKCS", "experiment": "HDX-MS determination of binding regions", "conditions": "1:3 molar ratio of proTGFβ1 to Fab", "from_the_text": "Briefly, HDX-MS relies on the exchange of the protein backbone amide hydrogens with deuterium in solution. The backbone amide hydrogens involved in weak hydrogen bonds or located at the surface of the protein may exchange rapidly while those buried in the interior or those involved in stabilizing hydrogen bonds exchange more slowly. Based on the mass difference between hydrogen (1 Da) and deuterium (2 Da), which can be detected for example by mass spectrometry, the H-D exchange can be monitored overtime, Thus, by measuring HDX rates of backbone amide hydrogens, one can obtain information on protein dynamics, conformation and protein-protein interaction such as antibody-antigen-binding.\nIn HDX-MS, the regions of an antigen that are tightly bound by an antibody are protected from proton exchange, due to protein-protein interaction, while regions that are exposed to solvent can readily undergo proton exchange. Based on this, binding regions within the antigen, which are protected by the specific binding of the antibody, were identified."}, "[4]": {"system": "liver fibrosis (liver hydroxyproline)", "experiment": "CCl4 model of liver fibrosis", "type": "in vivo, mouse", "conditions": "CCl4 mice, 4 weeks", "experimental": "Carbon tetrachloride (CCl4) treatment of mice is a well-characterized model of liver fibrosis. In this model, Balb/C mice were dosed intraperitoneally (i.p.) twice weekly with 2.5 μl of a 20% CCl4 solution in corn oil per gram bodyweight. This CCl4 dosing was maintained throughout the duration of the study(6 weeks). After two weeks of CCl4 dosing, dosing with test articles started. […] After 6 weeks of CCl4 dosing (4 weeks of antibody treatment), mice were sacrificed and liver tissue was collected.\nThe hydroxyproline assay (see description above) was used to measure fibrosis in liver lysates from this study. […] The treatment effect of both TGFβ1-specific antibodies was similar to that of the pan-TGFβ inhibitor 1D11."}, "[5]": {"system": "TGFβ signaling (Smad2/3 phosphorylation; Col1a1, Col3a1, Fn1)", "experiment": "Col4a3−/− genetic model of Alport syndrome (kidney pSmad2/3 ELISA, qPCR)", "type": "in vivo, mouse", "source_text": "The murine Col4a3−/− model is an established genetic model of autosomal recessive Alport syndrome. Alport mice lack a functional collagen 4A3 gene (Col4A3−/−) and therefore cannot form normal type IV collagen trimers, which require α3, α4, and α5 chains. Col4a3−/− mice develop fibrosis in the kidney consistent with renal fibrosis in human patients, including interstitial fibrosis and tubular atrophy, and Col4a3−/− mice develop end-stage renal disease (ESRD) between 10 and 30 week of age, depending on the genetic background of the mouse. The structural and functional manifestation of renal pathology in Col4a3−/− mice, combined with the progression to ESRD make Col4a3−/− mice an ideal model to understand kidney fibrosis. Previous reports point to the importance of the TGFβ signaling pathway in this process, and treatment with either […], a known activator of TGFβ, or with a TGFβ ligand trap has been reported to prevent renal fibrosis and inflammation in Alport mice (Hahm et al. (2007) The American Journal of Pathology, 170(1): 110-125).\nF1 offspring from Col4a3+/− males on a 129/Sv genetic background crossed to Col4a3+/− females on a C57/Bl6 genetic were employed for the study.\nIt is well documented that TGFβ receptor activation leads to a downstream signaling cascade of intra cellular events, including phosphorylation of Smad2/3. […] FIG. 7A provides a graph showing relative ratios of phosphorylated vs. total (phosphorylated and unphospohrylated) Smad2/3.\nAn IgG was used as negative control in both heterozygous (Col4a3+/−; Het) and knock out (Col4a3−/−; KO) mice. Following six weeks of antibody treatment (12 weeks after birth), animals were sacrificed, and the kidneys were collected for analyses.\nTo assess the functional effect of TGFβ inhibition, a third study was carried out in the Col4a3−/− model of kidney fibrosis. […] Treatment effect was assessed by gene expression, which was evaluated by quantitative polymerase chain reaction (qPCR) using cDNA generated from the kidneys of mice in this study."}, "[6]": {"system": "Cell-associated proTGFβ1", "experiment": "MSD-SET binding, cell average of hGARP and hLRRC33 complexes", "set-up": "species or system human", "conditions": "average KD of (E) and (F), read-out: (G) Cell AVRG", "source_text": "Column (A) of the table provides monoclonal antibodies with discrete amino acid sequences. […] Columns (B), (C), (E) and (F) provide affinities of each of the listed antibodies, measured in KD, towards the antigen complex as indicated, respectively. […] Similarly, Average KD values calculated from (E) and (F) are shown in the corresponding column (G), which collectively represents affinities of the antibodies to cell-surface or cell-associated proTGF complexes. Finally, relative ratios between the average KD values from columns (D) and (G) are expressed as fold bias” in column (H). Thus, the greater the numerical of column (H) is, the greater bias exists for the particular antibody, when comparing binding preferences of the antibody for matrix-associated complexes to cell-surface complexes. This is one way of quantitatively representing and comparing inherent bias of antibodies to their target complexes. Such analyses may be useful in guiding the selection process for a candidate antibody for particular therapeutic use. Select antibodies of the present disclosure, as measured by MSD-SET, show context-bias (i.e., greater than five-fold bias) or unbias (i.e., less than 5-fold bias) toward matrix-associated complexes over cell-associated complexes. […] Without being bound by a particular theory, the differences in the kinetics of the assays and/or differences in the nature of recombinant proteins may account for the noticeable differences seen in Ab19 binding to hGARP complexes observed in the above Octet assay (see Table 6) compared to the below MSD-SET assay (see Table 7 below). For example, the Octet assay measures kinetic on and off rates, while the MSD-SET assay measures binding at equilibrium. In addition, the recombinant antibodies used in the Octet assay were expressed as IgG1 antibodies in yeast, while the antibodies used in the MSD assay were expressed as IgG4 antibodies in mammalian cells."}, "[7]": {"experiment": "4-week rat toxicology study (weekly dosing)", "type": "in vivo", "source_text": "Animals were sacrificed and necropsies performed."}}, "note": "Entries after “also recorded” stand apart in the source; their conditions may differ.", "data": [{"molecule": "B1", "values": [{"measurement": "Tumor growth compared to PD-1 alone", "setting": "[1]", "result": "delayed tumor growth"}, {"measurement": "Kd", "setting": "[2]", "result": 0.643, "unit": "nM"}, {"measurement": "Regions of proTGFβ1 protected from H/D exchange upon Fab binding (binding regions 1, 2, 3)", "setting": "[3]", "result": "LREAVPE; also recorded: WKWIHEPKGYHANFCLG"}, {"measurement": "Liver hydroxyproline", "setting": "[4]; high dose 15 mg/kg i.p. twice weekly", "result": "statistically significant reduction in liver hydroxyproline"}, {"measurement": "Liver hydroxyproline", "setting": "[4]; lower doses 5 or 1.5 mg/kg i.p. twice weekly", "result": "trend towards reduced liver hydroxyproline, but these differences are not statistically significant"}, {"measurement": "Expression of Col1a1, Col3a1 and Fn1 in kidney (qPCR)", "setting": "[5]; 5 mg/kg i.p. twice a week from week 6 to week 14, Col4a3−/− mice", "result": "significantly reduced the expression of Col1a1 and Col3a1; also recorded: Expression of Fn1 showed a similar trend in Ab2-treated Col4a3−/− mice, though this effect was not statistically significant"}, {"measurement": "Relative ratio of phosphorylated vs. total Smad2/3 in whole kidney lysates", "setting": "[5]; i.p. twice weekly for six weeks from week 6, Ab3 5 or 1.5 mg/kg, Ab2 1.5 mg/kg, vs IgG treated Col4a3−/− mice", "result": "significant reduction in relative phosphorylation of Smad2/3"}, {"measurement": "Relative ratio of phosphorylated vs. total Smad2/3 in whole kidney lysates", "setting": "[5]; single 10 mg/kg i.p. dose 48 hours before sacrifice, 9 week old Col4a3−/− mice", "result": "sufficient to significantly inhibit pSmad2/3 signaling"}, {"measurement": "Kd", "setting": "[6]", "result": 2.3, "unit": "nM"}, {"measurement": "Test article-related toxicity", "setting": "[7]; once weekly for 4 weeks up to 100 mg/kg, Fischer 344 or SD rats", "result": "free of observable toxicities associated with pan-inhibition of TGFβ; also recorded: no observable test article-related toxcity in either rat strain; also recorded: no toxic effects over background"}, {"measurement": "MTD", "setting": "[7]; rats, suggested from NOAEL of four-week toxicology study", "result": "> 100", "unit": "mg/kg"}, {"measurement": "NOAEL", "setting": "[7]; rats, weekly dose for 4 weeks, highest dose tested", "result": 100, "unit": "mg/kg"}]}]}
